Reference: PMC10556095, “A natural mutation in the promoter of Ms-cd1 causes dominant male sterility in Brassica oleracea”

B1: WTpro (dsDNA)
DNA 1: GATACATGTAAGTGCAGGTAGCTCATGACAGAAATTGACGGAACACAGAGTTACTCTGATTCTATA
DNA 2: TATAGAATCAGAGTAACTCTGTGTTCCGTCAATTTCTGTCATGAGCTACCTGCACTTACATGTATC
B2: MTpro (dsDNA)
DNA 1: GATACATGTAAGTGCAGGTAGCTCATGCAGAAATTGACGGAACACAGAGTTACTCTGATTCTATA
DNA 2: TATAGAATCAGAGTAACTCTGTGTTCCGTCAATTTCTGCATGAGCTACCTGCACTTACATGTATC
B3: W1 (dsDNA)
DNA 1: GTGCAGGTAGCTCATG
DNA 2: CATGAGCTACCTGCAC
B4: W7 (dsDNA)
DNA 1: CAGAAATTGACGGAAC
DNA 2: GTTCCGTCAATTTCTG

Tests used:
[1] = target: T1, BoERF1L-His (His-BoERF1L; Methods: His-BoERF1) (Brassica oleracea, UniProt A0A0D3ABA8 1-210); test: EMSA; unlabeled WTpro at 20x, 30x, 40x competes dose-dependently; EMSA: 10 µL with 2 µg protein, 20 fmol biotin-labeled DNA, 2 µL 5x EMSA/Gel-Shift Binding Buffer (GS005, Beyotime); 6% polyacrylamide gel; salt, pH and temperature not stated; conditions: protein: recombinant; tags: His (Methods: C-terminal; pET-SUMO vector); label: biotin
T1 sequence (A0A0D3ABA8 entry or part of it): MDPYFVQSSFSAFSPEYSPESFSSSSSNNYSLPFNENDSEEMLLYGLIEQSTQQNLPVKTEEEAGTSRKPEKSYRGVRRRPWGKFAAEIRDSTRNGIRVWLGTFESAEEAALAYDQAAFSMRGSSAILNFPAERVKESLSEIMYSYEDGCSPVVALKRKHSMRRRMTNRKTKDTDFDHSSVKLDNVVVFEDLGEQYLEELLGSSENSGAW

[2] = target: T1, BoERF1L-His (His-BoERF1L; Methods: …); test: EMSA; EMSA: 10 µL with 2 µg protein, 20 fmol biotin-labeled DNA, 2 µL 5x EMSA/Gel-Shift Binding Buffer (GS005, Beyotime); 6% polyacrylamide gel; salt, pH and temperature not stated; conditions: protein: recombinant, tags: His (Methods: C-terminal; pET-SUMO vector)

Row | Binder | binding result [2] | other results
1 | B1 | – | binding result [1]: binds
2 | B2 | – | binding result ([2]; label: biotin): no binding
3 | B3 | no binding | –
4 | B4 | no binding | –
